# According to US20250282868A1 (ITEOS BELGIUM, published 2025):
# T1: cynomolgus TREM2 (cynomolgus, UniProt A0A2K5UY34 49-260)
# T1 construct: also called cynoTREM2; cTREM2
# T1 sequence: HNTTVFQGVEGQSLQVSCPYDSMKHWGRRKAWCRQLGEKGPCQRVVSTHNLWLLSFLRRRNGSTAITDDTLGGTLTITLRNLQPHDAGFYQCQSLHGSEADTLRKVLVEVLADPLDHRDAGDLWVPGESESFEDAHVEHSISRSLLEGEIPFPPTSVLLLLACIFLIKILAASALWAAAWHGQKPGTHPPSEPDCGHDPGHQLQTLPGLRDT
# T2: human TREM2 (human, UniProt Q9NZC2 19-230)
# T2 construct: on THP-1 WT cells and M2a-like macrophages (endogenous) and on CHO or HEK293T cells overexpressing human TREM2 with DAP12; also called hTREM2
# T2 sequence: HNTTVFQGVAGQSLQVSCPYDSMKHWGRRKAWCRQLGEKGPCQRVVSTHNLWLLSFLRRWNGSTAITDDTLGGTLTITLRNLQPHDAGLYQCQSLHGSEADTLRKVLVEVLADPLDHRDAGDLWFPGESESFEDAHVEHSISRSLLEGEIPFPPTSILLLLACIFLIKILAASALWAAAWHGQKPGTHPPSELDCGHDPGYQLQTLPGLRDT
# T3: mouse TREM2 (mouse, UniProt Q99NH8 19-227)
# T3 construct: whole, on cells
# T3 sequence (looked up): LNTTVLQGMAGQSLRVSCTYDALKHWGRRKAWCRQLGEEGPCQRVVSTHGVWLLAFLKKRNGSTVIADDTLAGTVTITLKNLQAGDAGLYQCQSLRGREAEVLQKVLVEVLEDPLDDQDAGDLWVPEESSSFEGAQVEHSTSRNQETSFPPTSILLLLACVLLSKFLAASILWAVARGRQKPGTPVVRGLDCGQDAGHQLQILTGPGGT
# B1: EOS006166 (antibody, V domains shown)
# VH: EVQLVESGGGLVQPGRSLRLSCTASGFTFGDYAMSWFRQAPGKGLEWVGFIGSKAYGGTTEYTASVKGRFTISRDGSKSIAYLQMNSLKTEDTAVYYCARGKRYSYGYWHPAFDVWGQGTMVTVSS
# VL: DIQMTQSPSSLSASVGDRVTITCQASQDITNYLNWYQQKPGKAPKLLIYDASNLETGVPSRFSGSGSGTDFTFTISSLQPEDIATYYCQQYDSYLTFGGGTKVEIK
# B2: EOS006174 (antibody, V domains shown)
# VH: EVQLVESGGGLVQPGRSLRLSCTASGFTFGEYTMSWFRQAPGKGLEWVGFIGSKAYAGTTEYTASVKGRFTISRDGSKSIAYLQMNSLKTEDTAVYYCARGKRYSYGGWVPAFDVWGQGTMVTVSS
# VL: DIQMTQSPSSLSASVGDRVTITCQASQDITNYLNWYQQKPGKAPKLLIYDASNLETGVPSRFSGSGSGTDFTFTISSLQPEDIATYYCQEYDSYLAFGGGTKVEIK
# B3: EOS006181 (antibody, V domains shown)
# VH: EVQLVESGGGLVQPGRSLRLSCTASGFTFDDHAMSWFRQAPGKGLEWVGFIGSKAYGGTTEYTASVKGRFTISRDGSKSIAYLQMNSLKTEDTAVYYCARGKRYSYTYWTPAFDVWGQGTMVTVSS
# VL: DIQMTQSPSSLSASVGDRVTITCQASQDITNYLNWYQQKPGKAPKLLIYDASNLETGVPSRFSGSGSGTDFTFTISSLQPEDIATYYCQQYDSYLTFGGGTKVEIK
# B4: EOS006173 (antibody, V domains shown)
# VH: EVQLVESGGGLVQPGRSLRLSCTASGFTFGDYAMSWFRQAPGKGLEWVGFIGSKAYGGTTEYTASVKGRFTISRDGSKSIAYLQMNSLKTEDTAVYYCARGKRRDYGYWHPAFDVWGQGTMVTVSS
# VL: DIQMTQSPSSLSASVGDRVTITCQASQDITNYLNWYQQKPGKAPKLLIYDASNLETGVPSRFSGSGSGTDFTFTISSLQPEDIATYYCQEYDQYLTFGGGTKVEIK
# notes: also called EOS061730
# B5: EOS006177 (antibody, V domains shown)
# VH: QVQLQESGPGLVKPSGTLSLTCAVSGGSISDSAWWSWVRQPPGKGLEWIGEIYHDADTNYNPSLKSRVTISVDKSKNQFSLKLSSVTAADTAVYYCARDTKYWGGMDVWGQGTTVTVSS
# VL: DIQMTQSPSSLSASVGDRVTITCQASQDISNYLNWYQQKPGKAPKLLIYDASNLATGVPSRFSGSGSGTDFTFTISSLQPEDIATYYCQQYVEAPTFGGGTKVEIK
# B6: EOS006164 (antibody, V domains shown)
# VH: EVQLVESGGGLVQPGRSLRLSCTASGFTFDDYTMSWFRQAPGKGLEWVGFIGSKAYSATTEYTASVKGRFTISRDGSKSIAYLQMNSLKTEDTAVYYCARGKRYSYTYWTPAFDVWGQGTMVTVSS
# VL: DIQMTQSPSSLSASVGDRVTITCQASQDITNYLNWYQQKPGKAPKLLIYDASNLETGVPSRFSGSGSGTDFTFTISSLQPEDIATYYCQEYDSYITFGGGTKVEIK
# B7: EOS006163 (antibody, V domains shown)
# VH: QVQLVQSGAEVKKPGSSVKVSCKASGGTFAQYAISWVRQAPGQGLEWMGVIIPDSGTANYAQKFQGRVTITADESTSTAYMELSSLRSEDTAVYYCARTQENTIFDIWGQGTMVTVSS
# VL: EIVLTQSPATLSLSPGERATLSCRASQSVSSYLAWFQQKPGQAPRLLIYDASNRATGIPARFSGSGSGTDFTLTISSLEPEDFAVYYCQQDYEWPITFGGGTKVEIK
# B8: EOS006180 (antibody, V domains shown)
# VH: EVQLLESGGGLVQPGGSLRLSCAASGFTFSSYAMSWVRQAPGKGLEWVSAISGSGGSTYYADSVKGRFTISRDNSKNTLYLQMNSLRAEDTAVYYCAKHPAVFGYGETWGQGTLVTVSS
# VL: EIVLTQSPGTLSLSPGERATLSCRASQSVSSSFLAWYQQKPGQAPRLLIYGASSRATGIPDRFSGSGSGTDFTLTISRLEPEDFAVYYCQQYYGLPITFGGGTKVEIK
# Experiments:
# [1] = molecular target: T1, cynomolgus TREM2; assay: MFI on CHO cells over-expressing cynoTREM2-DAP12 vs CHO empty vector
# Method: (§1) Cross-reactivity of anti-TREM2 antibodies to cynomolgus TREM2 (cynoTREM2) was assessed using CHO over-expressing cynoTREM2-DAP12 (Table 22). Benchmark antibodies, AB52 and PN-37012, were examined for comparison.
# [2] = molecular target: T2, human TREM2; assay: flow cytometry, competition with LDL-Alexafluor-488 on CHO cells overexpressing human TREM2/DAP12
# Method: Exemplary anti-TREM2 antibodies were tested in order to characterize their ability to enter in competition with TREM2 ligand, LDL, on CHO overexpressing human TREM2/DAP12. Antibodies (dose response curves from 66.65 nM to 0.07 nM) were incubated for 30 min with cells in a soluble fashion, followed by an incubation with LDL coupled with Alexafluor-488 (at 1 μg/mL final) for 30 min. Finally, after 2 washes, cells were acquired on flow cytometer. The median MFI of Alexafluor-488 was used to plot the graphs. Benchmark antibody MOR044746 was used as positive control.
# [3] = molecular target: T2, human TREM2; assay: flow cytometry, M2a-like macrophages
# Method: (§2) M2a-like macrophages were produced in vitro from monocytes of healthy donors. Briefly, after PBMCs isolation from peripheral blood using Lymphoprep™ gradient, CD14+ cells were purified and seeded in presence of MCSF 50 ng/ml for 6 days. Macrophages were then cultured with IL-13 and IL-4 at a concentration of 20 ng/ml for two additional days and then used for a cell-based binding assay.
# (§3) M2a-like macrophages were incubated with anti-TREM2 antibodies (dose-response curve with 11 concentrations from 10 μg/ml to 0.0001 μg/ml) for 30 min at 4° C. After washing, bound antibodies were detected with a secondary anti-human IgG Fc PE-labelled for 30 min at 4° C. Fluorescence intensity was measured by flow cytometry. Equilibrium dissociation constant (kD) was then calculated for each antibody using median MFI normalized over isotype control.
# [4] = molecular target: T2, human TREM2; assay: flow cytometry, THP-1 WT vs THP-1 TREM2 KO cells, 10 ug/ml
# Method: (§4) In order to test specificity of selected antibodies to TREM2, binding was tested by flow cytometry on THP-1 TREM2 KO (clone, produced using CRISPR technology in house) and on THP-1 WT. Cells were incubated with selected anti-TREM2 antibodies (final concentration of 10 μg/ml) for 30 min at 4° C. After washing, bound antibodies were detected with a secondary anti-human IgG Fc PE-labelled for 30 min at 4° C. Fluorescence intensity was measured by flow cytometry.
# [5] = molecular target: T2, human TREM2; assay: cell-based or functional assay
# [6] = molecular target: T2, human TREM2; assay: flow cytometry, THP-1 WT cells, 10 ug/ml
# Method: as §4
# [7] = molecular target: T2, human TREM2; assay: flow cytometry, M2a-like macrophages, dose-response
# Method: as §2, §3
# [8] = molecular target: T2, human TREM2; assay: cell-based or functional assay; remark: listed apart in the source
# [9] = molecular target: T1, cynomolgus TREM2; assay: MFI on CHO cells over-expressing cynoTREM2-DAP12
# Method: as §1
# [10] = molecular target: T3, mouse TREM2; assay: MFI on CT26 cells over-expressing mouse TREM2 and DAP12 vs CT26 empty vector
# Method: (§5) Cross-reactivity to mouse TREM2 was assessed using CT26 cells over-expressing mouse TREM2 and DAP12 (Table 23). Eight anti-TREM2 antibodies and both benchmark antibodies were considered cross-reactive to mouse TREM2 (MFI higher than isotype control and fold change of CT26-TREM2 over the CT26 Empty Vector higher than 5). The remaining anti-TREM2 antibodies were considered as being low to not cross-reactive (fold change less than 5). EOS006171 was not tested due to clear non-cross-reactivity preliminary data by octet (data not shown).
# [11] = molecular target: T3, mouse TREM2; assay: MFI on CT26 cells over-expressing mouse TREM2 and DAP12
# Method: as §5
# [12] = molecular target: T3, mouse TREM2; assay: MFI on CT26 cells over-expressing mouse TREM2 and DAP12; column 'Considered cross-reactive'
# Method: as §5
Binder,MFI Fold change (CHO-cTREM2 over CHO-EV) [1] [fold],IC50 [2] [nM],Fold over isotype [3] [fold],MFI Fold change (THP-1 WT over THP-1 TREM2 KO) [4] [fold],Stabilization ratio (Mean of 2 replicates) [5] [ratio],Fold over isotype control THP1 WT [6] [fold],Kd [7] [nM],Fold over isotype control at 66 nM [8] [fold],Binding to CHO-cTREM2 MFI [9] [MFI],MFI Fold change (CT26-TREM2 over CT26-EV) [10] [fold],Binding to CT26-TREM2 MFI [11] [MFI],pSYK/TotSYK EC50 (nM) [8] [nM],binding result [12]
B1,602,0.865,5.9,1.8,0.49,7.3,1.21,1.75,25500,,,,
B2,323,0.3,14.9,5.1,0.46,4,0.09,0.897,15700,34.3,10100,,
B3,251,0.28,9.3,4.8,0.69,3.5,,2.84,11900,17.4,4690,1.09,
B4,329,0.145,8.2,3.3,0.41,3.3,0.3,1.34,14000,11,3940,1.08,
B5,355,0.195,17.3,6.8,0.44,3.3,0.19,0.95,19600,21.4,8680,,
B6,277,0.265,12.9,4.3,0.55,3.7,0.32,1.16,14200,21.4,6540,,
B7,395,0.169,13,5.1,0.42,2.7,0.15,0.701,17700,,,,
B8,,,,,,,,,,1.8,1890,,no binding (tested: fold change less than 5)
